Laboratory results as given in the RNAGym collection of RNA variant scans (doi:10.7554/elife.90254).

B1: LINE1-mini (parent)
chain: GGCAGAGCUCAACACAGCGUGGCAAAGUGGCUGUGGCUAGACUGCC

Variants of: B1
Test: self-cleavage, relative activity (ratio to wild type); higher = more cleavage; in vitro, sequencing; the parent is a self-cleaving ribozyme

Variant | self-cleavage
GGCAGAGCUCAACACAGCGUGGCAAACGGGCUGUGGCUAGACUGCC [G27C U28G] | 0.51
GGCAGCGCACAACACAGCGUGGCAAAGUGGCUGUGGCUAGACUGCC [A6C U9A] | 0.18
GGCAGAAGUCAACACAGCGUGGCAAAGUGGCUGUGGCUAGACUGCC [G7A C8G] | 0.17
GGCAGAGCUCAACGCAGCGUGGCAUAGUGGCUGUGGCUAGACUGCC [A14G A25U] | 0.53
GGCAGAGCUCAACACAGUGUGGCAAAGUGGCUAUGGCUAGACUGCC [C18U G33A] | 0.09
GGCAGAGCUCAACACAGAGUGGCAAAGUGGCUGUGGCCAGACUGCC [C18A U38C] | 0.09
GGCAGAGCUCAACACAGCGUGGCAAAGAGGCUCUGGCUAGACUGCC [U28A G33C] | 0.03
GGCAGAGCUCUAUACAGCGUGGCAAAGUGGCUGUGGCUAGACUGCC [A11U C13U] | 0.04
GGCAGAGCUCAACACAGCUUGGCAAAGUGGCUGUGGCUAGACGGCC [G19U U43G] | 0.02
GGCAGAGCUCAACACAGCGUGGCAAACUGGGUGUGGCUAGACUGCC [G27C C31G] | 0.05
GGCAGAGCUCAACACAGCGUGGCAAAGUGGCUGUGGAUAGACUGGC [C37A C45G] | 0.17
GGCAGAGCUCAACACAACGUGGCAAAGUGGCUGUGGCUUGACUGCC [G17A A39U] | 0.06
GGCAGAGCUCAACGCAGCGUGGCAAAGUGGCUGUGGCUAGACUGAC [A14G C45A] | 0.38
GGCAGAGGUCAACACAGUGUGGCAAAGUGGCUGUGGCUAGACUGCC [C8G C18U] | 0.1
GGCAGAGCUCAACACAGCGUGGCAACGUGGCUGUGGCUAGACUUCC [A26C G44U] | 0.28
GGGAGAGCUCAUCACAGCGUGGCAAAGUGGCUGUGGCUAGACUGCC [C3G A12U] | 0.43
GGCAGAGCCCAACACAGCGUGGCAAAGUGGCUGAGGCUAGACUGCC [U9C U34A] | 0.04
GCCAGAGCUCAACACAGCGUGGAAAAGUGGCUGUGGCUAGACUGCC [G2C C23A] | 0.08
GGCUGAGCUCAACACAGCGUGGCAAAGUGGCUGUGGCUGGACUGCC [A4U A39G] | 0.07

Variant | self-cleavage
GGCAGAGCUCAACACAGCGUGGCAAAGUGGCUAUGGCUAUACUGCC [G33A G40U] | 0.09
GGCAGAGAUCAACACAGCGUGGCAAAGUGGCUAUGGCUAGACUGCC [C8A G33A] | 0.16
GGCAGAGCUCAACACAGCGUGGCAAAAUCGCUGUGGCUAGACUGCC [G27A G29C] | 0.36
GGCAGAGCUCAACACAGCGUGGCAAAGUGGGUGUGGGUAGACUGCC [C31G C37G] | 0.04
CGCAGAGCUCAACACAGCGUCGCAAAGUGGCUGUGGCUAGACUGCC [G1C G21C] | 0.06
GGCAGAGCUCAACACAACGUGGCAAAGUGGCCGUGGCUAGACUGCC [G17A U32C] | 0.09
GGCAGAGCUCAACACCGCGUGGCAAAGUGGCUGUGGCUUGACUGCC [A16C A39U] | 0.09
UGCAGAGCUCAACACAGCGUGGCAAAGUGGCUGUGGCUAGACUGAC [G1U C45A] | 0.26
GGCAGAGCUCUACACAGCGUGGCUAAGUGGCUGUGGCUAGACUGCC [A11U A24U] | 0.21
GGCAGUGCUCAACACAGCGUGCCAAAGUGGCUGUGGCUAGACUGCC [A6U G22C] | 0.37
GGCUGAGCUCAACACAGCGUGGCAUAGUGGCUGUGGCUAGACUGCC [A4U A25U] | 0.84
GGCAGAGCUCAACACAGCGUGGCAAUGUGGCUGUGGCUAGACUCCC [A26U G44C] | 0.64
GGCAGUGCUCAACACAGCGUGGCAAAGUGGCUGUGGCUAGACUCCC [A6U G44C] | 0.75
GGCAUAGCUCAACACAGCGUGGCAACGUGGCUGUGGCUAGACUGCC [G5U A26C] | 0.11
GGCAGAGCUCAACACAGCGUGGCAGAGUGGCUGUGGCUAGAGUGCC [A25G C42G] | 0.05
GGCAGAGCUCAACACAGCGUGGCAAAGUUGCCGUGGCUAGACUGCC [G29U U32C] | 0.16
GUCAGAGCUCAACACAGCGUUGCAAAGUGGCUGUGGCUAGACUGCC [G2U G21U] | 0.14
GGCAGAGCUCAACACAGCGUGGCAAAGUGGCUCUGGCUAGACUCCC [G33C G44C] | 0.04
GGCAGAGCUCAACACAGCGUGGCAAGGUGGCUGUGUCUAGACUGCC [A26G G36U] | 0.12

Variant | self-cleavage
GACAGAGCUCAACACAGCGUGGCAAAGUGGGUGUGGCUAGACUGCC [G2A C31G] | 0.14
GGCUGAGCUCAACACAGCGUGGCAAAGUGGCUCUGGCUAGACUGCC [A4U G33C] | 0.09
GGCAGAGCUCAACACAGCGUGGCAAAGUGGCUGAGGCUAUACUGCC [U34A G40U] | 0.06
GGCAGAGCUCAACUAAGCGUGGCAAAGUGGCUGUGGCUAGACUGCC [A14U C15A] | 0.16
UGCAGAGCUCAGCACAGCGUGGCAAAGUGGCUGUGGCUAGACUGCC [G1U A12G] | 0.04
GGCAGUGCUCAACACAGCGUGGCAAAGUGGCUGGGGCUAGACUGCC [A6U U34G] | 0.28
GGCAGAGCUCAACAUAGCGUGGCAAAGUGGCUGUGUCUAGACUGCC [C15U G36U] | 0.12
GGCAGAGCUCAACACAGCGUGCCAAAGUGGCUGUGGCUAGACUGUC [G22C C45U] | 1.21
GGCAGAGCUCAACACGGCGUGGCAAAGUGGCUGUGGCUAGACAGCC [A16G U43A] | 0.02
GGCAGAGCUCCACACAGCGUGGCCAAGUGGCUGUGGCUAGACUGCC [A11C A24C] | 0.04
GGCAGAACUCAACACAGCGUGGCAAAGUGGCUGUGGCUAUACUGCC [G7A G40U] | 0.27
GGCAGAGCUCAAAACAGCGAGGCAAAGUGGCUGUGGCUAGACUGCC [C13A U20A] | 0.11
GGCAGAGUUCAACACAGCGUGGCAAAGUGGCUGUGGCUAGCCUGCC [C8U A41C] | 0.16
GGGAGAGCUCAACCCAGCGUGGCAAAGUGGCUGUGGCUAGACUGCC [C3G A14C] | 0.06
GGCAGAGCUCAACACACCGUGGCAAAGUGGCUGUUGCUAGACUGCC [G17C G35U] | 0.03
GGCAGAGCUCAACACUGCGUGGCAAAGUGACUGUGGCUAGACUGCC [A16U G30A] | 0.1
GGCAGAGCUCAACACAGCGUGGUACAGUGGCUGUGGCUAGACUGCC [C23U A25C] | 0.86
GGCAGAGCUCACCACAGCGUGGCAAAGUGGCUGUGGCUAGCCUGCC [A12C A41C] | 0.02
